Assay results published in patent US20070207519A1 (SANDOZ, published 2007).

Biological target: T1, β-subunit of wild-type CPC acylase derived from Pseudomonas sp. SE83 (Pseudomonas sp. SE83, UniProt P15558 240-774)
T1 construct: About 58 kDa subunit of 535 amino acids; also called AcyII β-subunit; CPC acylase β-subunit
T1 sequence: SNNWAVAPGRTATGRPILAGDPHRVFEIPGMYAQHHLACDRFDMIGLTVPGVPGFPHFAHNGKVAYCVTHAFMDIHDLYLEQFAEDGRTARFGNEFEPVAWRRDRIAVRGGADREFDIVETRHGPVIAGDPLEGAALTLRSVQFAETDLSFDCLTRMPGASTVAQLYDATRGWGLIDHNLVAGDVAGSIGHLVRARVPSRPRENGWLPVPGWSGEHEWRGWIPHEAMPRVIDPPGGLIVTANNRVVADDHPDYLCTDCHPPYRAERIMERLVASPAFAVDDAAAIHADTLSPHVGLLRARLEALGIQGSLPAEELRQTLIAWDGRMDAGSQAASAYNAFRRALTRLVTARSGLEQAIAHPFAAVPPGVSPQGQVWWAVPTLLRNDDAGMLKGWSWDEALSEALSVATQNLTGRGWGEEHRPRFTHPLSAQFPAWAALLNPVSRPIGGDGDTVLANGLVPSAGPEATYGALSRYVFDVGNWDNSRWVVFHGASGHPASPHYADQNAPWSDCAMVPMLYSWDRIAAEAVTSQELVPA
Assay: non-denaturing PAGE and MALDI-TOF of the purified enzyme (single species of about 83 kDa) against denaturing SDS-PAGE (bands of 25 kDa and 58 kDa)
Text: Further, the active fraction of wild-type CPC acylase obtained in Example <2-1> was subjected to non-denaturing PAGE and Coomasie blue staining. As a result, a single band was detected at a position corresponding to the molecular weight of about 83 kDa, which means that the wild-type CPC acylase was purely purified (FIGS. 11a to 11c). Together with the result of non-denaturing PAGE, MALDI-TOF mass spectrophotometry analysis confirmed that the molecular weight of purified enzyme (that is, the active CPC acylase) is about 83 kDa. Furthermore, about 25 kDa of band corresponding to α-subunit and about 58 kDa of band corresponding to β-subunit were detected by denaturing SDS-PAGE.

- binding result: binds
B1: α-subunit of wild-type CPC acylase derived from Pseudomonas sp. SE83 (enzyme)
chain: TMAAKTDREALQAALPPLSGSLSIPGLSAPVRVQRDGWGIPHIKASGEADAYRALGFVHAQDRLFQMELTRRKALGRAAEWLGAEAAEADILVRRLGMEKVCRRDFEALGAEAKDMLRAYVAGVNAFLASGAPLPIEYGLLGAEPEPWEPWHSIAVMRRLGLLMGSVWFKLWRMLALPVVGAANALKLRYDDGGQDLLCIPPGVEAERLEADLAALRPAVDALLKAMGG
notes: About 25 kDa subunit of 229 amino acids; also called AcyII α-subunit; CPC acylase α-subunit
